Results taken from patent US20230002480A1.

What was measured:
Experiment in all cases: cell-based or functional assay
[1] = molecular target: HIV-1 Env of pseudovirus 1006_11_C3_1601 (HIV-1)
[2] = molecular target: HIV-1 Env of pseudovirus 211-9 (HIV-1)
[3] = molecular target: HIV-1 Env of pseudovirus 231966.c02 (HIV-1)
[4] = molecular target: HIV-1 Env of pseudovirus 246F C1G (HIV-1)
[5] = molecular target: HIV-1 Env of pseudovirus 620345.c01 (HIV-1)
[6] = molecular target: HIV-1 Env of pseudovirus 6244_13_B5_4576 (HIV-1)
[7] = molecular target: HIV-1 Env of pseudovirus 6545.v4.c1 (HIV-1)
[8] = molecular target: HIV-1 Env of pseudovirus 6811.v7.c18 (HIV-1)
[9] = molecular target: HIV-1 Env of pseudovirus 7030102001E5(Rev-) (HIV-1)
[10] = molecular target: HIV-1 Env of pseudovirus AC10.0.29 (HIV-1)
[11] = molecular target: HIV-1 Env of pseudovirus BF1266.431a (HIV-1)
[12] = molecular target: HIV-1 Env of pseudovirus BJOX010000.06.2 (HIV-1)
[13] = molecular target: HIV-1 Env of pseudovirus C2101.c01 (HIV-1)
[14] = molecular target: HIV-1 Env of pseudovirus CAAN5342.A2 (HIV-1)
[15] = molecular target: HIV-1 Env of pseudovirus CAP210.2.00.E8 (HIV-1)
[16] = molecular target: HIV-1 Env of pseudovirus CNE19 (HIV-1)
[17] = molecular target: HIV-1 Env of pseudovirus CNE21 (HIV-1)
[18] = molecular target: HIV-1 Env of pseudovirus CNE52 (HIV-1)
[19] = molecular target: HIV-1 Env of pseudovirus Ce1172_H1 (HIV-1)
[20] = molecular target: HIV-1 Env of pseudovirus Ce2010_F5 (HIV-1)
[21] = molecular target: HIV-1 Env of pseudovirus Ce703010054_2A2 (HIV-1)
[22] = molecular target: HIV-1 Env of pseudovirus HIV-16845-2.22 (HIV-1)
[23] = molecular target: HIV-1 Env of pseudovirus MS208.A1 (HIV-1)
[24] = molecular target: HIV-1 Env of pseudovirus P0402_c2_11 (HIV-1)
[25] = molecular target: HIV-1 Env of pseudovirus P1981_C5_3 (HIV-1)
[26] = molecular target: HIV-1 Env of pseudovirus Q259.d2.17 (HIV-1)
[27] = molecular target: HIV-1 Env of pseudovirus R1166.c01 (HIV-1)
[28] = molecular target: HIV-1 Env of pseudovirus R3265.c06 (HIV-1)
[29] = molecular target: HIV-1 Env of pseudovirus REJO4541.67 (HIV-1)
[30] = molecular target: HIV-1 Env of pseudovirus RHPA4259.7 (HIV-1)
[31] = molecular target: HIV-1 Env of pseudovirus T255-34 (HIV-1)
[32] = molecular target: HIV-1 Env of pseudovirus THRO4156.18 (HIV-1)
[33] = molecular target: HIV-1 Env of pseudovirus WEAU_d15_410_787 (HIV-1)
[34] = molecular target: HIV-1 Env of pseudovirus WITO4160.33 (HIV-1)
[35] = molecular target: HIV-1 Env of pseudovirus ZM135M.PL10a (HIV-1)
[36] = molecular target: HIV-1 Env of pseudovirus ZM249M.PL1 (HIV-1)

Substance 8ANC195 (antibody) has a neutralization IC50 [1] of 0.43 µg/mL, a neutralization IC80 [1] of 1.98 µg/mL and an IC50, titer in TZM.bl cells [2] of 1.34 µg/mL. The IC80, titer in TZM.bl cells [2] was 8.43 µg/mL, the IC50, titer in TZM.bl cells [3] was 0.54 µg/mL and the IC80, titer in TZM.bl cells [3] was 2.98 µg/mL. It also gave a neutralization IC50 [4] of 12.8 µg/mL, a neutralization IC80 [4] greater than 50 µg/mL and an IC50, titer in TZM.bl cells [5] greater than 50 µg/mL. For the same substance, the IC80, titer in TZM.bl cells [5] was greater than 50 µg/mL, the neutralization IC50 [6] was greater than 50 µg/mL and the neutralization IC80 [6] was greater than 50 µg/mL. The IC50, titer in TZM.bl cells [7] was 26.9 µg/mL, the IC80, titer in TZM.bl cells [7] was greater than 50 µg/mL and the IC50, titer in TZM.bl cells [8] was 5.34 µg/mL. It also gave an IC80, titer in TZM.bl cells [8] of 27.6 µg/mL, a neutralization IC50 [9] of 0.86 µg/mL and a neutralization IC80 [9] of 8.32 µg/mL. It also gave a neutralization IC50 [10] of 0.88 µg/mL, a neutralization IC80 [10] of 7 µg/mL and a neutralization IC50 [11] greater than 50 µg/mL. For the same substance, the neutralization IC80 [11] was greater than 50 µg/mL, the IC50, titer in TZM.bl cells [12] was 0.85 µg/mL and the IC80, titer in TZM.bl cells [12] was 5.84 µg/mL. The IC50, titer in TZM.bl cells [13] was 0.48 µg/mL, the IC80, titer in TZM.bl cells [13] was 3.54 µg/mL and the neutralization IC50 [14] was greater than 50 µg/mL. The neutralization IC80 [14] was greater than 50 µg/mL, the neutralization IC50 [15] was greater than 50 µg/mL and the neutralization IC80 [15] was greater than 50 µg/mL. For the same substance, the neutralization IC50 [16] was 0.29 µg/mL, the neutralization IC80 [16] was 1.73 µg/mL and the neutralization IC50 [17] was 0.27 µg/mL. The neutralization IC80 [17] was 1.52 µg/mL, the neutralization IC50 [18] was 5.59 µg/mL and the neutralization IC80 [18] was 43.1 µg/mL. The neutralization IC50 [19] was 42.3 µg/mL, the neutralization IC80 [19] was greater than 50 µg/mL and the neutralization IC50 [20] was greater than 50 µg/mL. It also gave a neutralization IC80 [20] greater than 50 µg/mL, a neutralization IC50 [21] of 13.6 µg/mL and a neutralization IC80 [21] greater than 50 µg/mL. It also gave a neutralization IC50 [22] of 3.3 µg/mL, a neutralization IC80 [22] of 20.1 µg/mL and a neutralization IC50 [23] greater than 50 µg/mL. It also gave a neutralization IC80 [23] greater than 50 µg/mL, an IC50, titer in TZM.bl cells [24] of 0.62 µg/mL and an IC80, titer in TZM.bl cells [24] of 6.35 µg/mL. For the same substance, the IC50, titer in TZM.bl cells [25] was 0.14 µg/mL, the IC80, titer in TZM.bl cells [25] was 1.15 µg/mL and the neutralization IC50 [26] was greater than 50 µg/mL. The neutralization IC80 [26] was greater than 50 µg/mL, the IC50, titer in TZM.bl cells [27] was 4.83 µg/mL and the IC80, titer in TZM.bl cells [27] was 4.83 µg/mL. For the same substance, the IC50, titer in TZM.bl cells [28] was 50 µg/mL, the IC80, titer in TZM.bl cells [28] was greater than 50 µg/mL and the neutralization IC50 [29] was 0.08 µg/mL. It also gave a neutralization IC80 [29] of 0.68 µg/mL, a neutralization IC50 [30] of 0.34 µg/mL and a neutralization IC80 [30] of 1.56 µg/mL. The IC50, titer in TZM.bl cells [31] was 0.54 µg/mL, the IC80, titer in TZM.bl cells [31] was 8.09 µg/mL and the neutralization IC50 [32] was greater than 50 µg/mL. For the same substance, the neutralization IC80 [32] was greater than 50 µg/mL, the neutralization IC50 [33] was greater than 50 µg/mL and the neutralization IC80 [33] was greater than 50 µg/mL. It also gave a neutralization IC50 [34] greater than 50 µg/mL, a neutralization IC80 [34] greater than 50 µg/mL and a neutralization IC50 [35] greater than 50 µg/mL. It also gave a neutralization IC80 [35] greater than 50 µg/mL, a neutralization IC50 [36] greater than 50 µg/mL and a neutralization IC80 [36] greater than 50 µg/mL.
